Assays:
[1] = molecular target: FMN1 FH1-FH2 (Mus musculus) (UniProt Q05860); conditions: cited from earlier work
[2] = molecular target: T1, Extended FH2 FMN1 (mouse, UniProt Q05860 961-1466); assay: SPR; Biacore T200; WW1-WW2 FNBP4 amine-coupled to a CM5 chip (1016.5 RU); Extended FH2 FMN1 flowed over at various concentrations; HBS-N running buffer; 25 °C; association 120 s, dissociation 380 s; global fit to a 1:1 Langmuir model; conditions: both partners purified
T1 sequence (looked up): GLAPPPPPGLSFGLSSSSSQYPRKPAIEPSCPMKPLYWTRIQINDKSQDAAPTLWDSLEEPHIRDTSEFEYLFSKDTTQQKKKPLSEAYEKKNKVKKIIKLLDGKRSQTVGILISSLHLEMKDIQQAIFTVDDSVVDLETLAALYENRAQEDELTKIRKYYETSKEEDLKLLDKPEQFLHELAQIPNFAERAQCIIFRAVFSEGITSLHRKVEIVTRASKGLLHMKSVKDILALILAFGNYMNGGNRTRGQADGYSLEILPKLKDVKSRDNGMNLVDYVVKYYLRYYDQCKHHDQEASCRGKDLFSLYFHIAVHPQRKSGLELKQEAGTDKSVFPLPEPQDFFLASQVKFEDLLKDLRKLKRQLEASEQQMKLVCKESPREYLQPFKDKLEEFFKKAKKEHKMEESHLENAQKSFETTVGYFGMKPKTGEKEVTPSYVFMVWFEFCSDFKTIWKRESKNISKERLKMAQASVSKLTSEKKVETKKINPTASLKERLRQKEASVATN

FMN1 FH1-FH2 (Mus musculus), sequence (Q05860 870-1435): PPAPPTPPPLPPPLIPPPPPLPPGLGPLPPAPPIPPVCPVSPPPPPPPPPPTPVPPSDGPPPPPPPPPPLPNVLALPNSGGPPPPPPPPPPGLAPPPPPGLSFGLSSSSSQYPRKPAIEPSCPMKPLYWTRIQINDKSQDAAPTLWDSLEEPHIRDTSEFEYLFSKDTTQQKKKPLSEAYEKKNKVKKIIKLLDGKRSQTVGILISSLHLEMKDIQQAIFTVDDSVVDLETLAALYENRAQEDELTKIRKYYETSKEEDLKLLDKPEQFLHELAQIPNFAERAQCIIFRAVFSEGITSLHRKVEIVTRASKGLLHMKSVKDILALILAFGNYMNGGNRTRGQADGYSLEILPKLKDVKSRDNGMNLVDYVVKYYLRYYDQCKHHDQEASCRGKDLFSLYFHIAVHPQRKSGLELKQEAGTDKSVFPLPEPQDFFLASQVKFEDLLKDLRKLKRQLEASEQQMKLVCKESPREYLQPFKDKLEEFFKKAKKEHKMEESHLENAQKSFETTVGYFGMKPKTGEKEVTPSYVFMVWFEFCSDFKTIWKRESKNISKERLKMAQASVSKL

FNBP4 WW1-WW2 (from UniProt Q6ZQ03)
Kd [1]: 0.002 µM

B1: N-terminal WW1-WW2 FNBP4 (domain or fragment, human, UniProt Q8N3X1 214-629, looked up)
chain: GIEMGDWQEVWDENTGCYYYWNTQTNEVTWELPQYLATQVQGLQHYQPSSVPGAETSFVVNTDIYSKEKTISVSSSKSGPVIAKREVKKEVNEGIQALSNSEEEKKGVAASLLAPLLPEGIKEEEERWRRKVICKEEPVSEVKETSTTVEEATTIVKPQEIMLDNIEDPSQEDLCSVVQSGESEEEEEQDTLELELVLERKKAELRALEEGDGSVSGSSPRSDISQPASQDGMRRLMSKRGKWKMFVRATSPESTSRSSSKTGRDTPENGETAIGAENSEKIDENSDKEMEVEESPEKIKVQTTPKVEEEQDLKFQIGELANTLTSKFEFLGINRQSISNFHVLLLQTETRIADWREGALNGNYLKRKLQDAAEQLKQYEINATPKGWSCHWDRDHRRYFYVNEQSGESQWEFPDG
Kd [2]: 0.0365 µM | koff [2]: 0.000803 s⁻¹ | kon [2]: 22500 M⁻¹ s⁻¹
